Values quoted from earlier work as cited in publication PMC11394807.
Read-outs that look alike come from different tables or passages of the source.

Tests used:
[1] = target: Spike protein (SARS-CoV-2) (UniProt P0DTC2)
[2] = target: Spike protein (SARS-CoV-2) (UniProt P0DTC2); remark: listed apart in the source
[3] = target: Spike protein RBD (SARS-CoV-2) (UniProt P0DTC2)
[4] = target: Spike protein (SARS-CoV-2) (UniProt P0DTC2); remark: listed apart in the source
[5] = target: Spike protein (SARS-CoV-2) (UniProt P0DTC2); remark: listed apart in the source

Chain of ASGR1 (P07306 whole entry): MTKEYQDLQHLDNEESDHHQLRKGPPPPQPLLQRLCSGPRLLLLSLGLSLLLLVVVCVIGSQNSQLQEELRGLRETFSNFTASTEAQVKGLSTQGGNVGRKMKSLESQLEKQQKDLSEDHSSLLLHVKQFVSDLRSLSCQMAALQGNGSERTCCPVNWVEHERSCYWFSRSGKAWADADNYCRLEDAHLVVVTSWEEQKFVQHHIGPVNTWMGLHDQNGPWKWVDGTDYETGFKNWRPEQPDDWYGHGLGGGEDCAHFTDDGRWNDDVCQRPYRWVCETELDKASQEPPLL
Chain of GRP78 (P11021 19-654): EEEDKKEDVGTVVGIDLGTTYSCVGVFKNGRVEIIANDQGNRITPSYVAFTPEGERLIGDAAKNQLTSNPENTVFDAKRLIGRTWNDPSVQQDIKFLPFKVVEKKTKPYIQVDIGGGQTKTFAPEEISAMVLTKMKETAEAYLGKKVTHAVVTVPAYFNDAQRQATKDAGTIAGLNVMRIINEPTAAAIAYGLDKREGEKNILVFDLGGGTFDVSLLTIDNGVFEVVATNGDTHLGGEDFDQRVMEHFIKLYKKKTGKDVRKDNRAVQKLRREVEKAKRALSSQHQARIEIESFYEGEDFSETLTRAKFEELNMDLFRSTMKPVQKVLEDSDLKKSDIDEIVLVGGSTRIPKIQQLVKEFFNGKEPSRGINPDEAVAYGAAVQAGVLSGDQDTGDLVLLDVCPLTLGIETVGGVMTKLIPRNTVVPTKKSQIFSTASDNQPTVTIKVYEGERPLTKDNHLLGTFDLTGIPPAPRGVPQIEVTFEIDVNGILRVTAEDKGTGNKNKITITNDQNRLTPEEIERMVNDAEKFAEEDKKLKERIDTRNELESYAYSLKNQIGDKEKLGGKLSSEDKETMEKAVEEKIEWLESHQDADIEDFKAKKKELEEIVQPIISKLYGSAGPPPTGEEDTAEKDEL

With ASGR1 (from UniProt P07306) as the substance, how does the Kd [1] read?
Its Kd is 125 nM.

Which Kd [2] does the source give for AXL (from UniProt P30530) here?
Its Kd is 882 nM.

With CD147 (from UniProt P35613) as the substance, how does the Kd [3] read?
The Kd was 185 nM.

With GRP78 (from UniProt P11021) as the substance, how does the Kd [4] read?
Its Kd is 55.2 nM.

Which Kd [5] does the source give for NRP1 (from UniProt O14786) here?
Its Kd is 166 nM.
